Drawing on patent US20250084172A1, this text covers Phage enrichment for 3 molecules.

First the molecules themselves.
B1: humanized 6E1 (h6E1), Fc version not stated (antibody, V domains shown)
VH: EVQLVQSGAEVKKPGASVKVSCKASGYTFTNYWMHWMRQAPGQGLEWLGRIHPSDSDTNYNQKFKGRATLTVDKSISTAYMELSRLRSDDTAVYYCAIEGTGKGYFDVWGRGTLVTVSS
VL: DIQMTQSPSSLSASVGDRVTITCKASQDIYSYLSWFQQKPGKSPKTLIYRANRLVDGVPSRFSGSGSGQDFTLTISSLQPEDFATYYCLHYDEFPLTFGGGTKVEIK
B2: humanized 7B3 (h7B3), Fc version not stated (antibody, V domains shown)
VH: EVQLVESGGGLVQPGGSLRLSCAASGFTFSTYGFHWVRQAPGKGLEWVAYISSNSGTIDYADTVKGRFTISRDNAKNSLYLQMNSLRAEDTAVYYCARQGYGFDNWGQGTTVTVSS
VL: DIQLTQSPSSLSASVGDRVTITCSASSRVSYMNWYQQKPGKSPKIWVYGISNLASGVPSRFSGSGSGTDFTFTISSLQPEDIATYYCQQRSSHPLTFGGGTKVEIK
B3: humanized 8E11 (h8E11), Fc version not stated (antibody, V domains shown)
VH: B2 VH with S30R, F34M, N54G, A97T, G100T, Y101G, G102A, F103M, N105Y, T111L
VL: EIVLTQSPATLSLSPGERATLSCSASSSVSYMNWYQQKPGQSPRLWIYGISNLASGVPARFSGSGSGTDFTLTISSLEPEDFAVYYCQQRSSHPLTFGGGTKVEIK

Positions count from the first letter of the chain named.

The test deals with mutagenized ULBP6 phage library (pool of ULBP6 mutants displayed on M13 phage). As to the kind of experiment: plate panning; antibody coated at 5 ug/mL, eluted phage titered against PBS-coated background wells.
As to B1, the Phage enrichment is 220 fold.

For the molecule B2, the Phage enrichment came out at 75 fold. In the case of B3, the Phage enrichment was 145 fold.
